The source of these data is patent US20240182536A1 (MURAL ONCOLOGY, published 2024).

Test [1] has as its target T1, IL-18 receptors on HEK-Blue IL-18 reporter cells (UniProt Q13478 19-541; O95256 20-599, limits assumed).
T1 sequence (looked up) 1: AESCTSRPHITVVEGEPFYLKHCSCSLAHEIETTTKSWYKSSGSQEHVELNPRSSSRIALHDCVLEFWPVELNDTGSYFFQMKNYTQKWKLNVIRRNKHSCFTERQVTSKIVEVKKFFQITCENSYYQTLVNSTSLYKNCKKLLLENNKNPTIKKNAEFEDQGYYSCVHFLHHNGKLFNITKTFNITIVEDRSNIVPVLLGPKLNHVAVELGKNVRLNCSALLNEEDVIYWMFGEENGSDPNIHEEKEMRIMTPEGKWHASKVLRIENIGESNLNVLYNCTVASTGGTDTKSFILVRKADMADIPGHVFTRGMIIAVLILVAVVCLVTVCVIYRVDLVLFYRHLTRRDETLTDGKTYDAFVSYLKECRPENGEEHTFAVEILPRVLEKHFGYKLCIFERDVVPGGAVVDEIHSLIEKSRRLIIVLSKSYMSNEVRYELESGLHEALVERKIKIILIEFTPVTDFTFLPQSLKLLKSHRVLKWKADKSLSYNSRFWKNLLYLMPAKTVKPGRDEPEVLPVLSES
T1 sequence (looked up) 2: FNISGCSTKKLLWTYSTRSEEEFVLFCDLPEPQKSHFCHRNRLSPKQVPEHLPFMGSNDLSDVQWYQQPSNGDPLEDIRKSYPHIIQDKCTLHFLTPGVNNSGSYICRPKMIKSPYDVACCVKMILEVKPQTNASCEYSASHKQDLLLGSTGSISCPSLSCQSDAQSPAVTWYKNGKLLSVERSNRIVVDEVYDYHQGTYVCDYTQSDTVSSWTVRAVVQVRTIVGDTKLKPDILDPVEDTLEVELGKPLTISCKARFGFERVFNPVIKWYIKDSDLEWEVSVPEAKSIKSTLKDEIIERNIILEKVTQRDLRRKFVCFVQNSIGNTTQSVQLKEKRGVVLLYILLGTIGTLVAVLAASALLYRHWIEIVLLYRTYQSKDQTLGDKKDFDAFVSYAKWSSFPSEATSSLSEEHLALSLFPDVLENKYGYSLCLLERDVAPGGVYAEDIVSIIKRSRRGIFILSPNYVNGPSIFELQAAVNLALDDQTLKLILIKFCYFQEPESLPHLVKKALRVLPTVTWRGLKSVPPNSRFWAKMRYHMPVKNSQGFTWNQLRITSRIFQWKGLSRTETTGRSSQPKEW
Briefly: cell-based or functional assay.

The target of test [2] is T2, human IL-18 binding protein (human, UniProt O95998 31-194).
T2 sequence (looked up): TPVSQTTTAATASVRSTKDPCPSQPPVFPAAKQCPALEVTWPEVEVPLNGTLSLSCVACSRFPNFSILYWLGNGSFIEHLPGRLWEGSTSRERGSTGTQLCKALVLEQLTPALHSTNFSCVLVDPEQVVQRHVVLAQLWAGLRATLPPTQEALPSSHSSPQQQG
Briefly: cell-based or functional assay.

The target of test [3] is T3, human IL-18 receptor alpha (IL-18Rα) (human, UniProt Q13478 19-329, limits assumed).
T3 construct: also called hu IL-18Ra; IL-18R alpha
T3 sequence (looked up): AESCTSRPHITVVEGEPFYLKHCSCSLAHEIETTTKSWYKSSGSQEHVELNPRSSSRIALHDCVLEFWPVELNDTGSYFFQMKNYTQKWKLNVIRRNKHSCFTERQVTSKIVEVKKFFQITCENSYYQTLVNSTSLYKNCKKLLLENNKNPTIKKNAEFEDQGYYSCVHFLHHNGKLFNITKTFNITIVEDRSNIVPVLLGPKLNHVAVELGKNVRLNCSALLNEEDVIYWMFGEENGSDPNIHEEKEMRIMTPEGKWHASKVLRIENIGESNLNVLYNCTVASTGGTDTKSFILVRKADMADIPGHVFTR
Briefly: Octet BLI. The method, then:
(§1) Octet 96red instrument was used to determine affinities of IL18 proteins to BP or receptors. 5-10 ug/ml analyte proteins were used for loading on Sartorius tips (AHC or SA). […] 120-180 s loading, 200 s association and 800 s dissociation were used for kinetics. 3-7 data points were used to calculate affinities.

Test [4] has as its target T4, human IL-18R alpha/beta pair (IL-18Rab) (human, UniProt Q13478 19-329; O95256 20-356).
T4 construct: also called hu IL-18Rab
T4 sequence (looked up) 1: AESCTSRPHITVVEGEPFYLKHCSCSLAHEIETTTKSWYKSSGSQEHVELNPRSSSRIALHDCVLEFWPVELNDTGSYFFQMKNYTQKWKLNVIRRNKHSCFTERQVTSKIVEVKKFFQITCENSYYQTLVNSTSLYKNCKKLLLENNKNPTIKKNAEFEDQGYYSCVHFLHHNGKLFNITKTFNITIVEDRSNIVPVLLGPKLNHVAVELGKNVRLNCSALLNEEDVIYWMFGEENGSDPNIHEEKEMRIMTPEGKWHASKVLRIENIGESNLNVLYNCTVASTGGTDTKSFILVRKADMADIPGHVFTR
T4 sequence (looked up) 2: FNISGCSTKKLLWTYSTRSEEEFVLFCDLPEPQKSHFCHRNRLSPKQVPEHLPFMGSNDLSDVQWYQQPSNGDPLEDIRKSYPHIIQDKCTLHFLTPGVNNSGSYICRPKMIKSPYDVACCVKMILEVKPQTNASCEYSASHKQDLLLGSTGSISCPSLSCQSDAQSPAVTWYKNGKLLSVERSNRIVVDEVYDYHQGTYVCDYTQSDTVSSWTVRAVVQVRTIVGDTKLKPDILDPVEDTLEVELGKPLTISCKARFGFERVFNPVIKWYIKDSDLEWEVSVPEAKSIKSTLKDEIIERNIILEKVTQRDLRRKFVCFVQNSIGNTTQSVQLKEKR
Briefly: Octet BLI. The method, then:
as §1

The target in test [5] is T5, human IL-18 binding protein (IL-18BP) (human, UniProt O95998 31-194).
T5 construct: also called hu IL-18BP; hIL18BP
T5 sequence (looked up): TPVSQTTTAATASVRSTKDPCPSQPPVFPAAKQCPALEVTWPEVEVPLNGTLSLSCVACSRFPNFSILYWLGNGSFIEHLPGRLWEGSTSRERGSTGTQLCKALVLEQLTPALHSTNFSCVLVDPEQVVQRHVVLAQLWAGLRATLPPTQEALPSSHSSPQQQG
Briefly: Octet BLI. The method, then: as §1
(In general: BLI is a label-free optical method that tracks binding on a fibre tip over time.)

The target of test [6] is T5, human IL-18 binding protein (IL-18BP). Briefly: cell-based or functional assay.
Test [7] concerns the target T6, IL-18 receptors on HEK-Blue IL-18 reporter cells (InvivoGen) (UniProt Q13478 19-541; O95256 20-599).
T6 sequence (looked up) 1: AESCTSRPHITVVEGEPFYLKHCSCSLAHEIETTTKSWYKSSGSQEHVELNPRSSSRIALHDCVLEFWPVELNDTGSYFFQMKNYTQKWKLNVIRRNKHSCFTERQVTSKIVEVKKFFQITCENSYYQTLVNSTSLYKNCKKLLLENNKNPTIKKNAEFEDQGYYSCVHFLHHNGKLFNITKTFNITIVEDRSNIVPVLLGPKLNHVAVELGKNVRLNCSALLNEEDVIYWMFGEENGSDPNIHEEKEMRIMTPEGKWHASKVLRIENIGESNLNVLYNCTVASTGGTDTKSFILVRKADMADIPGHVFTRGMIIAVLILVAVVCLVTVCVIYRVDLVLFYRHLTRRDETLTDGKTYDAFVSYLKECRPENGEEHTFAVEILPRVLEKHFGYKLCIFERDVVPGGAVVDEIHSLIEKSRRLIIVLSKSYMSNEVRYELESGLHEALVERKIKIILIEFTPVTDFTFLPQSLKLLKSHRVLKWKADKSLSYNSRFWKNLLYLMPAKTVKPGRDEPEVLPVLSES
T6 sequence (looked up) 2: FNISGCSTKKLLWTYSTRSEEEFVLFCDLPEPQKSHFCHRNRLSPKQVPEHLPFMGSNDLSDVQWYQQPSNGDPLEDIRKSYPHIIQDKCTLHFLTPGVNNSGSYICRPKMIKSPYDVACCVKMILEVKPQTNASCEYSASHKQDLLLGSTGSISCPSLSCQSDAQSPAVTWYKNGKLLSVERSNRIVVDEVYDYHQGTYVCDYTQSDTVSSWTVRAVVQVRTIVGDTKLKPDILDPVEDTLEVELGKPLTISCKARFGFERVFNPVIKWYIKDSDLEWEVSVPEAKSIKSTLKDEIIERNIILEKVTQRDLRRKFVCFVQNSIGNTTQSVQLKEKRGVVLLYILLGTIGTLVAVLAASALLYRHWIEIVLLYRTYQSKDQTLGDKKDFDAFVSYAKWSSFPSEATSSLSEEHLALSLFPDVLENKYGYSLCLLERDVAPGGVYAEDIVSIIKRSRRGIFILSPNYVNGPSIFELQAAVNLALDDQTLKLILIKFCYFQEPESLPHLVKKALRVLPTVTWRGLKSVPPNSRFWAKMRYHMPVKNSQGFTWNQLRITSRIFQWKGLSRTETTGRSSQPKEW
Put plainly: cell-based or functional assay.

Test [8] concerns the target T5, human IL-18 binding protein (IL-18BP). Put plainly: cell-based or functional assay. This is another data set of the same source.
Test [9] deals with T6, IL-18 receptors on HEK-Blue IL-18 …. Briefly: cell-based or functional assay. This is another data set of the same source.
The target in test [10] is T7, IL-18 receptor (IL-18Rα and IL-18Rβ) (UniProt Q13478 19-541; O95256 20-599, limits assumed).
T7 sequence (looked up) 1: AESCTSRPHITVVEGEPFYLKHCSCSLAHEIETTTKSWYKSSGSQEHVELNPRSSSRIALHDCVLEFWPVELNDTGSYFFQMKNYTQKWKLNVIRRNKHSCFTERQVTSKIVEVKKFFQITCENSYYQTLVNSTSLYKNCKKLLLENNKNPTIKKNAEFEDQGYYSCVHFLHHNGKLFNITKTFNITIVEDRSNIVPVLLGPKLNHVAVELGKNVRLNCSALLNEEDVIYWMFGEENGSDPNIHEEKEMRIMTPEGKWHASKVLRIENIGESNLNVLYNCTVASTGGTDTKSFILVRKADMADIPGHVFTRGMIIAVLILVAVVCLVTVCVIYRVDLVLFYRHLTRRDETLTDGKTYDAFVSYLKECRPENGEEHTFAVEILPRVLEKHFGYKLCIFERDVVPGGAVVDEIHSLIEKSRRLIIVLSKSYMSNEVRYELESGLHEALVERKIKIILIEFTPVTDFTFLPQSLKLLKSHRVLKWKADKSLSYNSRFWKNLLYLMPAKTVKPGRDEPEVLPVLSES
T7 sequence (looked up) 2: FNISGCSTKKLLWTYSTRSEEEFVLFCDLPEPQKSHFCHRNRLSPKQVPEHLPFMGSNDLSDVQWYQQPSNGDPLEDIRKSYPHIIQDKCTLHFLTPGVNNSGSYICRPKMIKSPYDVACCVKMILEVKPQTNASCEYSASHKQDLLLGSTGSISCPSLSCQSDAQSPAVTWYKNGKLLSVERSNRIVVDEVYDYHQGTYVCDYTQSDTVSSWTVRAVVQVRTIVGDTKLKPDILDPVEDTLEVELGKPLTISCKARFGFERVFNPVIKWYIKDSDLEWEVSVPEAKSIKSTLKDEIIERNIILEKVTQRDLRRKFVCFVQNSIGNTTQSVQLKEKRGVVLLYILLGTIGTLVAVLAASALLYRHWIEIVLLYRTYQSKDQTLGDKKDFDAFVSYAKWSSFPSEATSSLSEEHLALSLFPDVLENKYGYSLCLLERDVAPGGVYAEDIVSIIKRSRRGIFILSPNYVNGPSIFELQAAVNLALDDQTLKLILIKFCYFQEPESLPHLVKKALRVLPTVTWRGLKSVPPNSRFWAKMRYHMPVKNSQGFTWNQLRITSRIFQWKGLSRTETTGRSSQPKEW
Put plainly: cell-based or functional assay.

The target of test [11] is T5, human IL-18 binding protein (IL-18BP). Put plainly: cell-based or functional assay. The source holds these as a separate data set.

B1: Comparator 1-monospecific KiH (Fc fusion)
chain: YFGKLESKLSVIRNLNDQVLFIDQGNRPLFEDMTDSDCRDNAPRTIFIISKYSDSLARGLAVTISVKCEKISTLSCENKIISFKEMNPPDNIKDTKSDIIFFQRDVPGHSRKMQFESSSYEGYFLACEKERDLFKLILKKEDELGDRSIMFTVQNED
In the case of B1, the “HEK-blue EC50 (pM) - IL-18BP” value in test [1] came out at 0.03 pM. Besides, the “HEK-blue EC50 (pM) + 300 nM IL-18BP” value in test [2] came out at 0.03 pM.

B2: IL-18 variant G3T, M60K (ligand)
chain: YFTKLESKLSVIRNLNDQVLFIDQGNRPLFEDMTDSDMRDNAPRTIFIISMYKDSQPRGKAVTISVKSEKISTLSSENKIISFKEMNPPDNIKDTKSDIIFFQRSVPGHDNKMQFESSSYEGYFLASEKERDLFKLILKKEDELGDRSIMFTVQNED
As usually defined, the Kd is a measure of binding affinity in units of concentration. Higher therefore signals lower affinity. In test [3], B2 displayed a Kd of 555 nM. Moreover, the dissociation constant Kd in test [4] was 0.02 nM. In test [5], binding was characterised by a dissociation constant (Kd) of 779 nM. In test [6], the “Fold Change (BP/NO BP), 50 nM BP” value is 0.99 fold; the “Fold Change (BP/NO BP), 300 nM BP” value worked out at 3.14 fold; the “HEK-Blue EC50 pM, +50 nM BP” value turned out to be 0.7 pM; the “HEK-blue EC50 (pM) + 300 nM BP” value turned out to be 2.4 pM. Further, in [7], the “HEK-Blue EC50 pM, NO BP (50 nM BP run)” value stood at 0.71 pM and the “HEK-Blue EC50 pM, NO BP (300 nM BP run)” value stood at 0.76 pM. Moreover, the “HEK-Blue Activity Assay Ec50 (pM), +300 nM hu IL-18BP” value in [8] worked out at 2.4 pM. Besides, the “HEK-Blue Activity Assay Ec50 (pM), -hu IL-18BP” value in test [9] came out at 0.76 pM. The “EC50 pM, IFN gamma expression in PBMCs, no BP” value in [10] was determined as 214 pM. In addition, in test [11], the “EC50 pM, IFN gamma expression in PBMCs, + 300 nM BP” value came out at 117 pM.
